In FireProtDB (doi:10.1016/j.ijbiomac.2008.12.016):
Several values for one entry are separate records, joined by “and”; a condition that tells them apart may be missing. Equal values may be shown once.

Conditions: Oryctolagus cuniculus, pH 8, CD, Tris_HCl 10 mM; for unfolding free energy / denaturant midpoint (higher = more stable): 25 °C, GdnHCl, reversible: Yes; for unfolding free energy: transition: 3; for Tm / change of melting temperature, mutant - wild type (higher = more stable): Thermal, reversible: No

Chain of Creatine kinase M-type D122A, P00563 (P00563 whole entry D122A): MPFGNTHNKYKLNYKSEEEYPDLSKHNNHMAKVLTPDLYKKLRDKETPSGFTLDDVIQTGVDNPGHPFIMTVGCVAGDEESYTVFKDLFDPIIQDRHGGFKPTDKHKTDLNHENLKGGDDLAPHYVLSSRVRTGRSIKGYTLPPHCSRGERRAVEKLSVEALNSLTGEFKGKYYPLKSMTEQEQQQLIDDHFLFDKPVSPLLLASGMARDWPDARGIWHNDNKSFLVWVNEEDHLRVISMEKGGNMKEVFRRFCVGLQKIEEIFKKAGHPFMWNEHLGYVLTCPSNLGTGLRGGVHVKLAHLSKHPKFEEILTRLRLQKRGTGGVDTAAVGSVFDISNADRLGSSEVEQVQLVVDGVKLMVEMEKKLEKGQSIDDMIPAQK
Chain of Creatine kinase M-type D122N, P00563 (P00563 whole entry D122N): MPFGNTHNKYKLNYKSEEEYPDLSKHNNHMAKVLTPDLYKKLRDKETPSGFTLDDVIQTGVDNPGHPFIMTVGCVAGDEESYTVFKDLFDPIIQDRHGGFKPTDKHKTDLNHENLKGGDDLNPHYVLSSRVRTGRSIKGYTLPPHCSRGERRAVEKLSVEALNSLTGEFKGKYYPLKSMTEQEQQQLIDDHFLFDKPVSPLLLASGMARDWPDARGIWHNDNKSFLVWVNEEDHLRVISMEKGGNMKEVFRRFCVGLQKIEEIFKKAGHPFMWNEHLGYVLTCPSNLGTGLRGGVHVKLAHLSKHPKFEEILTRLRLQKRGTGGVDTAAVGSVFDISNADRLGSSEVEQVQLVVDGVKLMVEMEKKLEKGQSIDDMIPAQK
Chain of Creatine kinase M-type wild type, P00563 (P00563 whole entry): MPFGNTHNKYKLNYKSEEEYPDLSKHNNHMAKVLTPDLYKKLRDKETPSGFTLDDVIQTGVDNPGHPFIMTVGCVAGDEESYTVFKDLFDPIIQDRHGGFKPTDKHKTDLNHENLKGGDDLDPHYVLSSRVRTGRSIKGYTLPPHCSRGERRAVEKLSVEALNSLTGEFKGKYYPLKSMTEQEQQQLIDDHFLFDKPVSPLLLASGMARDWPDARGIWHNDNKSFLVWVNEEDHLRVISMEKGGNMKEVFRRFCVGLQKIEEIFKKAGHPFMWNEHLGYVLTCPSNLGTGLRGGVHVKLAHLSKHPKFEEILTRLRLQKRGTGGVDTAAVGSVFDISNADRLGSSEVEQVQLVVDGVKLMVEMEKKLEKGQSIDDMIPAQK

Substance	unfolding free energy	Tm	denaturant midpoint (higher = more stable) (structure 2CRK)	unfolding free energy (structure 2CRK)	Tm (structure 2CRK)	change of melting temperature, mutant - wild type (higher = more stable) (structure 2CRK)
Creatine kinase M-type wild type, P00563	3.59 kcal/mol and 4.06 kcal/mol	59.1 °C				
Creatine kinase M-type D122N, P00563			0.29 M	3.59 kcal/mol and 2.87 kcal/mol	61.2 °C	2.1 °C
Creatine kinase M-type D122A, P00563			0.24 M	3.59 kcal/mol	59.1 °C	0 °C
